Consider three molecules from PMC12344411, “Cytosolic- and membrane-localized oxidized indole-3-acetic acid formation regulates developmental auxin transients” (Plant physiology, 2025).

The target of one assay is T1, TIR1 (Arabidopsis thaliana, UniProt Q570C0).
T1 construct: with IAA7
T1 sequence (Q570C0 1-594): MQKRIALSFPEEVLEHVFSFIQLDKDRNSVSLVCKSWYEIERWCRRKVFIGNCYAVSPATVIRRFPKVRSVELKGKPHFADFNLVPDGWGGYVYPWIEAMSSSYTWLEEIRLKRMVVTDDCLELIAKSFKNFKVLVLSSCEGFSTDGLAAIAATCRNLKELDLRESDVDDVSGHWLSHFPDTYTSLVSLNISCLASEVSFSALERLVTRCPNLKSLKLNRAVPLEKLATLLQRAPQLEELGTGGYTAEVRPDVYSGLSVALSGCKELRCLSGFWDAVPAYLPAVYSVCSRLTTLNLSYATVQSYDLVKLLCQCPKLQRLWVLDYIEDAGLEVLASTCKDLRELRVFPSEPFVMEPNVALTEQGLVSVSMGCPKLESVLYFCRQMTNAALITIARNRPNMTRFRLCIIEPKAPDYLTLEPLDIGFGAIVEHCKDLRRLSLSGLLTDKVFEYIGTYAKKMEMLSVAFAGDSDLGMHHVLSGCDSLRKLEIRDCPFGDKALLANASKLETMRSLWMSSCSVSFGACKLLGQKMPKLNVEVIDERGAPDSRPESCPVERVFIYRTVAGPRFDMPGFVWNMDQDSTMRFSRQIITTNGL
T1 sequence (Q38825 1-243 partner): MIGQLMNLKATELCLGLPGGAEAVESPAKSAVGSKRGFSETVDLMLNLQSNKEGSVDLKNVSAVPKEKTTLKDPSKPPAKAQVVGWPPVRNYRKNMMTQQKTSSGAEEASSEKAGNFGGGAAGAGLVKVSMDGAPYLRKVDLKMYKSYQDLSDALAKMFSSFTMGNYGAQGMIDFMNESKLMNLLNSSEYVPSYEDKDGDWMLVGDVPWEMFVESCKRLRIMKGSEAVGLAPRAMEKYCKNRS
Nature of the assay: synthetic yeast system, TIR1-dependent degradation of YFP-IAA7 and YFP-IAA17 by flow cytometry. In kind it is cell-based.

The target in assay [1] is TIR1 (Arabidopsis thaliana) (UniProt Q570C0). Nature of the assay: BLI. To be noted: cited from earlier work.
The target is the same in assay [2]. In words: BLI. To be noted: cited from earlier work. The source holds these as a separate data set.
Another assay addresses T2, IAA7 (Arabidopsis thaliana, UniProt Q38825).
T2 chain: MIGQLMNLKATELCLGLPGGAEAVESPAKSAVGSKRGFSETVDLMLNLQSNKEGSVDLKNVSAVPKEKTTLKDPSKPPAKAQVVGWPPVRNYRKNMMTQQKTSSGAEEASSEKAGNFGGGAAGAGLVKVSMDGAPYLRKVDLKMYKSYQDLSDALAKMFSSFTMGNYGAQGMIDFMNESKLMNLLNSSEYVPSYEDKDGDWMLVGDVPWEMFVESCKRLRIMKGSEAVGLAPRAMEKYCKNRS
Nature of the assay: BLI.

Regarding `O=C(O)Cc1c[nH]c2ccccc12` [IAA, indole-3-acetic acid], the “synthetic yeast system, TIR1-dependent degradation of YFP-IAA7 and YFP-IAA17 by” value at TIR1 was “signals from YFP-IAA7 and YFP-IAA17 decreased rapidly upon addition of IAA”.
Turning to IAA7 (from UniProt Q38825), the dissociation constant (Kd) in assay [1] is 20000 nM; in assay [2], 30 nM.

B1: TIR1 (protein)
chain: MQKRIALSFPEEVLEHVFSFIQLDKDRNSVSLVCKSWYEIERWCRRKVFIGNCYAVSPATVIRRFPKVRSVELKGKPHFADFNLVPDGWGGYVYPWIEAMSSSYTWLEEIRLKRMVVTDDCLELIAKSFKNFKVLVLSSCEGFSTDGLAAIAATCRNLKELDLRESDVDDVSGHWLSHFPDTYTSLVSLNISCLASEVSFSALERLVTRCPNLKSLKLNRAVPLEKLATLLQRAPQLEELGTGGYTAEVRPDVYSGLSVALSGCKELRCLSGFWDAVPAYLPAVYSVCSRLTTLNLSYATVQSYDLVKLLCQCPKLQRLWVLDYIEDAGLEVLASTCKDLRELRVFPSEPFVMEPNVALTEQGLVSVSMGCPKLESVLYFCRQMTNAALITIARNRPNMTRFRLCIIEPKAPDYLTLEPLDIGFGAIVEHCKDLRRLSLSGLLTDKVFEYIGTYAKKMEMLSVAFAGDSDLGMHHVLSGCDSLRKLEIRDCPFGDKALLANASKLETMRSLWMSSCSVSFGACKLLGQKMPKLNVEVIDERGAPDSRPESCPVERVFIYRTVAGPRFDMPGFVWNMDQDSTMRFSRQIITTNGL
modifications: oxIAA (saturating)
Consider B1, for which the equilibrium dissociation constant (Kd) with IAA7 was 200 nM.
